These results are taken from patent US20050181450A1 (published 2005).

To fix the notation:
B5: IRBIT (IP3R-binding protein released with inositol 1,4,5-trisphosphate) in the high salt extract of mouse cerebellar crude microsome (other)
chain: SMPDAMPLPGVGEELKQAKEIEDAEKYSFMATVTKAPKKQIQFADDMQEFTKFPTKTGRRSLSRSISQSSTDSYSSAASYTDSSDDEVSPREKQQTNSKGSSNFCVKNIKQAEFGRREIEIAEQDMSALISLRKRAQGEKPLAGAKIVGCTHITAQTAVLIETLCALGAQCRWSACNIYSTQNEVAAALAEAGVAVFAWKGESEDDFWWCIDRCVNMDGWQANMILDDGGDLTHWVYKKYPNVFKKIRGIVEESVTGVHRLYQLSKAGKLCVPAMNVNDSVTKQKFDNLYCCRESILDGLKRTTDVMFGGKQVVVCGYGEVGKGCCAALKALGAIVYITEIDPICALQACMDGFRVVKLNEVIRQVDVVITCTGNKNVVTREHLDRMKNSCIVCNMGHSNTEIDVTSLRTPELTWERVRSQVDHVIWPDGKRVVLLAEGRLLNLSCSTVPTFVLSITATTQALALIELYNAPEGRYKQDVYLLPKKMDEYVASLHLPSFDAHLTELTDDQAKYLGLNKNGPFKPNYYRY
notes: Endogenous protein extracted with 500 mM NaCl from crude microsome of mouse cerebellum, not purified; sites not determined; also called IRBIT in the high salt extract

In experiment [1] the target is B5. The experiment can be described thus: GST pulldown from high salt extract, Western blot with anti-IRBIT antibody. An excerpt:
(§1) FIG. 9A is the schematic representation of the structure of mouse IP₃R1 and the recombinant GST fusion proteins used in this study. The IP₃ binding core region is indicated with a gray box. Putative membrane-spanning regions are indicated with solid vertical bars. Roman numbers I to V indicate the domain structure of IP₃R1 determined by the limited trypsin digestion (51). Numbers above the bars represent corresponding amino acid residue numbers. […] The high salt extract of crude microsome obtained from mouse cerebella was incubated with GST fusion proteins shown in (A). Bound proteins were pulled down with glutathione-Sepharose, eluted with glutathione, and analyzed by Western blotting using anti-IRBIT antibody. […] Bound proteins were pulled down with glutathione-Sepharose, eluted with glutathione, and then analyzed by Western blotting using anti-IRBIT antibody (upper panel). GST fusion proteins pulled down with glutathione-Sepharose were stained with Coomassie Brilliant Blue (lower panel).
(§2) For the determination of the IRBIT binding region and the critical amino acid residue of IP₃R1, the diluted high salt extract was subjected to pulldown assay as described above with 100 pmol of GST, GST-EL, GST-Ia, GST-Iab, GST-IbIIa, GST-IIab, GST-IIbIIIa, GST-IIIab, GST-IV, GST-IV-Va, K508A or R441Q, and analyzed by Western blotting with anti-IRBIT antibody.
On the technique in general: In western blotting, separated proteins are transferred to a membrane and probed.

The target in experiment [2] is B5. Kind of experiment: GST pulldown from the high salt extract, Western blot with anti-IRBIT antibody.
From the text: as §1, §2

Experiment [3] deals with T1, GST-IV-Va (GST fusion of amino acids 1593-2217 of mouse IP3R1) (mouse, UniProt P11881 1593-2217).
T1 construct: Expressed in Escherichia coli; not shown: glutathione S-transferase (GST) tag of vector pGEX-4T-1
The experiment is described as above.
From the text: as §1, §2

Experiment [4] deals with T2, GST-IIbIIIa (GST fusion of amino acids 600-1248 of mouse IP3R1) (mouse, UniProt P11881 600-1248).
T2 construct: Expressed in Escherichia coli; not shown: glutathione S-transferase (GST) tag of vector pGEX-KG
The description is as above.
From the text: as §1, §2

Experiment [5] deals with T3, GST-IIIab (GST fusion of amino acids 916-1581 of mouse IP3R1) (mouse, UniProt P11881 916-1581).
T3 construct: Expressed in Escherichia coli; not shown: glutathione S-transferase (GST) tag of vector pGEX-KG
Described as above.
From the text: as §1, §2

Experiment [6] deals with GST-EL (GST-IP3R1 (1-2217), GST fusion of the N-terminal 2217 amino acid residues of mouse IP3R1) (mouse, UniProt P11881 1-2217). The experiment can be described thus: cell-based or functional assay.
Experiment [7] deals with T4, GST-IIab (GST fusion of amino acids 341-923 of mouse IP3R1) (mouse, UniProt P11881 341-923).
T4 construct: Expressed in Escherichia coli; not shown: glutathione S-transferase (GST) tag of vector pGEX-KG
The experiment can be described thus: GST pulldown from high salt extract, Western blot with anti-IRBIT antibody.
From the text: as §1, §2

T2 sequence (P11881 600-1248): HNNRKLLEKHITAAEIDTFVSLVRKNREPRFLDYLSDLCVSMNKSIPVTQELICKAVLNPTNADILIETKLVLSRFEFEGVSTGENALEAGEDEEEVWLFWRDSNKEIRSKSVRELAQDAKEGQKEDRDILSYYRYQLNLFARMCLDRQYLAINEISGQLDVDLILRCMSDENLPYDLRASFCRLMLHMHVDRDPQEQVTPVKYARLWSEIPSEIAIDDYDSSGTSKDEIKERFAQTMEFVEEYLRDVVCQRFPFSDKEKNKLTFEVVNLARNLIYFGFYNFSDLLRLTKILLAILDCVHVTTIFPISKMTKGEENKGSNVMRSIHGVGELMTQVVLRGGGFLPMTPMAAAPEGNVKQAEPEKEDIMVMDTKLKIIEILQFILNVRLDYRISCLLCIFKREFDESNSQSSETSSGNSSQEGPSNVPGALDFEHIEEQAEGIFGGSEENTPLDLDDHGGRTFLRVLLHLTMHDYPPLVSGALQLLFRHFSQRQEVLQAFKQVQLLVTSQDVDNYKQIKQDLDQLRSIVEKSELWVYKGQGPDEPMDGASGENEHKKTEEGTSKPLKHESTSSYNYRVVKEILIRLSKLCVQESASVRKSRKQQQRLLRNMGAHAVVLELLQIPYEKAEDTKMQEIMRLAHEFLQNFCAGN
T4 sequence (P11881 341-923): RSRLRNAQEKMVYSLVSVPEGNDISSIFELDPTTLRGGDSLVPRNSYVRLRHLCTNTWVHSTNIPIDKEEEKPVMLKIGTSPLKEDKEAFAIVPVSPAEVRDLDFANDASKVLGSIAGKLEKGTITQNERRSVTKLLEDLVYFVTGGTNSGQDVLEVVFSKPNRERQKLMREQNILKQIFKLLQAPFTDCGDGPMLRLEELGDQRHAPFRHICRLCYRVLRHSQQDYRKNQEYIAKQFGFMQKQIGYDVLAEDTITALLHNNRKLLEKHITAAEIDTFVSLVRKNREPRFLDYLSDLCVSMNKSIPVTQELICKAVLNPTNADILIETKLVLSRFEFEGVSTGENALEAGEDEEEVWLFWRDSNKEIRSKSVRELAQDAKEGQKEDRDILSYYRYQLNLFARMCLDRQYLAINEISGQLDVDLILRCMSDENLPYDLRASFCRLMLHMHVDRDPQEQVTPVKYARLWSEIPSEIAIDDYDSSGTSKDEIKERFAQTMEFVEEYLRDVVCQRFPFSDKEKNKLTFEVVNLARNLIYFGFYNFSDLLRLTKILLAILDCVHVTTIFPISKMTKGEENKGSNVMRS
Chain of GST-EL (GST-IP3R1 (1-2217), GST fusion of the N-terminal 2217 amino acid residues of mouse IP3R1) (P11881 1-2217 N1264K): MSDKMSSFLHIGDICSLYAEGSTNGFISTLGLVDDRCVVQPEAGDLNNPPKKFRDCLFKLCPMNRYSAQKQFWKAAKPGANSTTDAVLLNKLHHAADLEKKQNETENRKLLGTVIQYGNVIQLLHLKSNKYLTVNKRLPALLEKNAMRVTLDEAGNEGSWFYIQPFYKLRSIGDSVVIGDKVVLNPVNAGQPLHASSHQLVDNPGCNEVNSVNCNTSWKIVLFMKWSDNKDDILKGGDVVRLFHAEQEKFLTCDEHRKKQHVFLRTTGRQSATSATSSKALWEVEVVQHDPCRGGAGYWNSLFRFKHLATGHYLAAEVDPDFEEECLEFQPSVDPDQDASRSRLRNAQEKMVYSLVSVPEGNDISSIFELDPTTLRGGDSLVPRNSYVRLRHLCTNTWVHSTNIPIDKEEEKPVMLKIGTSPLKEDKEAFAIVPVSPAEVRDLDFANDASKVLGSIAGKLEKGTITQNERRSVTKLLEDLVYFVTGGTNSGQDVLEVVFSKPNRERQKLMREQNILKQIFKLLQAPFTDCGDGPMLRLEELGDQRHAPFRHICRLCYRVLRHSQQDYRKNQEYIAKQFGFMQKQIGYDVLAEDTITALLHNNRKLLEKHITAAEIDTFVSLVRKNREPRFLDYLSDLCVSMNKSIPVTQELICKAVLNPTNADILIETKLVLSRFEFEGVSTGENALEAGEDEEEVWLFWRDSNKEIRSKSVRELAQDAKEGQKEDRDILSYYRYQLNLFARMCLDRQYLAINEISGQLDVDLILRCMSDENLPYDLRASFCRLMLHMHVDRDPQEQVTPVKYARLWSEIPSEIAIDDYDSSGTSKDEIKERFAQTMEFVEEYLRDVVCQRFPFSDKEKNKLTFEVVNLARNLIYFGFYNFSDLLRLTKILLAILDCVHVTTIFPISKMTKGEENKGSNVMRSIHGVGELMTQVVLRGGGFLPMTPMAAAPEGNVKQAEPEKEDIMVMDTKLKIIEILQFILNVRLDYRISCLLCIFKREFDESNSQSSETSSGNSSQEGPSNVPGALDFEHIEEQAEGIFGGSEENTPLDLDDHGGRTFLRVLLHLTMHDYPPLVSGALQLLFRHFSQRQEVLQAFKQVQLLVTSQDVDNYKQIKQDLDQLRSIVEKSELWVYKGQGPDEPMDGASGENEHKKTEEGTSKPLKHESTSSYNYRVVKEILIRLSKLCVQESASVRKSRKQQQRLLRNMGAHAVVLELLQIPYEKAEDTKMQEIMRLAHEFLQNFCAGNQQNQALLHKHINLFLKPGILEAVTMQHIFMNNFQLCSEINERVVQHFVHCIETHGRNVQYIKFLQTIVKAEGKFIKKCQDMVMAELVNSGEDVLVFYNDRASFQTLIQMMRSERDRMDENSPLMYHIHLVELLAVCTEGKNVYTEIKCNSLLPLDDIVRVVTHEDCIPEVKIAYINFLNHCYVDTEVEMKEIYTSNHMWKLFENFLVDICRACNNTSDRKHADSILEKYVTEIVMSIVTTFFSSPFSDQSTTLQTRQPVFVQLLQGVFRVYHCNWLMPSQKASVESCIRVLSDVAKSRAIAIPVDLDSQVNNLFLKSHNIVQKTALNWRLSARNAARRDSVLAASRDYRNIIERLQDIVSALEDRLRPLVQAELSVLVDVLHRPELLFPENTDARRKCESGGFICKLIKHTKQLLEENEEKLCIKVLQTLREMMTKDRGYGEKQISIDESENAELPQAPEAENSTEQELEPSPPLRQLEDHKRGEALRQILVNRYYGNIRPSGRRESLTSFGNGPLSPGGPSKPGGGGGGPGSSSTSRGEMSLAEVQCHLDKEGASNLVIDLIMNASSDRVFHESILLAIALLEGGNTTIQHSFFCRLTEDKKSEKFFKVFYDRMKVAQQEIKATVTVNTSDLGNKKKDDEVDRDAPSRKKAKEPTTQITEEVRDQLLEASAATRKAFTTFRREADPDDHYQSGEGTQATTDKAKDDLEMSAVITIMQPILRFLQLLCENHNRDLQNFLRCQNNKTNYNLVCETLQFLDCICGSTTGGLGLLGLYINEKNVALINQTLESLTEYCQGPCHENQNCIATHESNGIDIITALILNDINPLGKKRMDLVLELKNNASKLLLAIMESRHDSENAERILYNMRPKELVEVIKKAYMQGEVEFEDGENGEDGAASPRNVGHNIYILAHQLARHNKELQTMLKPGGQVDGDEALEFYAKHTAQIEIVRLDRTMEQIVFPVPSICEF
T1 sequence (P11881 1593-2217): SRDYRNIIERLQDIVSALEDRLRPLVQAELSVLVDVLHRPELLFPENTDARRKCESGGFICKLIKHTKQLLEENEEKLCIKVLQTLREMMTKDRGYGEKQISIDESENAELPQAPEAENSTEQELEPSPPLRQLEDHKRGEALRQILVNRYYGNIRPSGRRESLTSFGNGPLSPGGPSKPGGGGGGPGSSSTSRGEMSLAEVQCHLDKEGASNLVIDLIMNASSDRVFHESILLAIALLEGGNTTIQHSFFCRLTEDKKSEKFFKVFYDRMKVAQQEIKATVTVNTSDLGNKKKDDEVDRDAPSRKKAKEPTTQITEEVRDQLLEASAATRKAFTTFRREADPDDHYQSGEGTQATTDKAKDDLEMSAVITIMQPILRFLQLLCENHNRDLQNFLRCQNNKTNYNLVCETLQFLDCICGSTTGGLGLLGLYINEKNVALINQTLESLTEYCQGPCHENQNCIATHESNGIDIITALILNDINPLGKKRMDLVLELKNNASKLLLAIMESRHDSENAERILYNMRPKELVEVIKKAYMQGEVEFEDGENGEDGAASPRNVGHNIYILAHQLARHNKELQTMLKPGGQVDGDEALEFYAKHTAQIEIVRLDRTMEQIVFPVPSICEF

B1: K508A (site-directed mutant of GST-IbIIa, lysine 508 of IP3R1 substituted with alanine) (receptor)
chain: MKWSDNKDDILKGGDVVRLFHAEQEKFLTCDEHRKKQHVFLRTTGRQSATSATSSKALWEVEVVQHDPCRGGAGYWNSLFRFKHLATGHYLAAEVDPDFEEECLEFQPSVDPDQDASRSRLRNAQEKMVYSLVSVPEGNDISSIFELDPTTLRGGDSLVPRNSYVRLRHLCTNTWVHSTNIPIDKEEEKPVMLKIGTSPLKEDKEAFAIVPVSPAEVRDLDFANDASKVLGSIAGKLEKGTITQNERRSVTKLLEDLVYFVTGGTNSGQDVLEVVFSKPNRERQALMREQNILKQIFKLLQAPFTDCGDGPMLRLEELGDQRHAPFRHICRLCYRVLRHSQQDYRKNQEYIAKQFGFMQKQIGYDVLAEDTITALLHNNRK
notes: not shown: The GST carrier at the N end and its vector linker
As to B1, in experiment [1], the binding result was “no binding (tested: 100 pmol of GST fusion protein)”.

B2: GST-Ia (GST fusion of amino acids 1-225 of mouse IP3R1) (receptor)
chain: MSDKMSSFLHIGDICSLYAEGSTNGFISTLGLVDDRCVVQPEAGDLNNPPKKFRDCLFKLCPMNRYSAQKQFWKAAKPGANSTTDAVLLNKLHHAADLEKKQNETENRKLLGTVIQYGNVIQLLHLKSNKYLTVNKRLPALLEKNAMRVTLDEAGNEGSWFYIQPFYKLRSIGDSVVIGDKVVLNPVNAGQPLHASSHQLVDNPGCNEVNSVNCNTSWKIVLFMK
notes: Expressed in Escherichia coli; not shown: glutathione S-transferase (GST) tag of vector pGEX-KG
Regarding B2, the binding result in experiment [2] is given as “no binding (tested: 100 pmol GST fusion protein)”.

B3: GST-Iab (GST fusion of amino acids 1-343 of mouse IP3R1) (receptor)
chain: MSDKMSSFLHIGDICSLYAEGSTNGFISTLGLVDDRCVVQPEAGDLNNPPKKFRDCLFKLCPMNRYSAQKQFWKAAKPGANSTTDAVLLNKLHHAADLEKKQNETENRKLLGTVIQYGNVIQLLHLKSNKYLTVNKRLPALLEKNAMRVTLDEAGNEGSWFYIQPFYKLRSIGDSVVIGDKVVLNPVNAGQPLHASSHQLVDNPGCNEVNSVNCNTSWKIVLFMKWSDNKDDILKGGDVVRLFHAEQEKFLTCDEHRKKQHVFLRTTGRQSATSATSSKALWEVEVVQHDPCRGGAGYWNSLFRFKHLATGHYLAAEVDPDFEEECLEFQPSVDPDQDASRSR
notes: as for B2
For B3, in experiment [1], the binding result was “no binding (tested: 100 pmol of GST fusion protein)”.

B4: GST-IV (GST fusion of amino acids 1553-1943 of mouse IP3R1) (receptor)
chain: DLDSQVNNLFLKSHNIVQKTALNWRLSARNAARRDSVLAASRDYRNIIERLQDIVSALEDRLRPLVQAELSVLVDVLHRPELLFPENTDARRKCESGGFICKLIKHTKQLLEENEEKLCIKVLQTLREMMTKDRGYGEKQISIDESENAELPQAPEAENSTEQELEPSPPLRQLEDHKRGEALRQILVNRYYGNIRPSGRRESLTSFGNGPLSPGGPSKPGGGGGGPGSSSTSRGEMSLAEVQCHLDKEGASNLVIDLIMNASSDRVFHESILLAIALLEGGNTTIQHSFFCRLTEDKKSEKFFKVFYDRMKVAQQEIKATVTVNTSDLGNKKKDDEVDRDAPSRKKAKEPTTQITEEVRDQLLEASAATRKAFTTFRREADPDDHYQSGE
notes: as for B2
For B4, in experiment [2], the binding result is “no binding (tested: 100 pmol GST fusion protein)”. In the case of B5, the binding result in experiment [3] was “no binding (tested: 100 pmol GST fusion protein)”; in experiment [4] it was “no binding (tested: 100 pmol GST fusion protein)”; in experiment [5] it was “no binding (tested: 100 pmol GST fusion protein)”; in experiment [7], “no binding (tested: 100 pmol of GST fusion protein)”. Also, the “EC50 (IP3 concentration required for half (50%)-maximal dissociation of IRBIT from GST-EL)” value in experiment [6] is about 0.5 µM.
